Assay results reported in US20230242671A1 (Eli Lilly, published 2023).
Changes are numbered by the printed parent chain.

T1: human TIGIT-ECD (human, UniProt Q495A1 22-141)
T1 construct: extracellular domain
T1 sequence (looked up): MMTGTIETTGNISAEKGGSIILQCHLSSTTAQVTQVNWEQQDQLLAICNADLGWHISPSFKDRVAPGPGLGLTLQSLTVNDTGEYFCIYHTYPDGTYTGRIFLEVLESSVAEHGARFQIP

B1: cMet-BAH10 IgG1 heteromab (RE on cMet heavy chain Fc region only) (bispecific antibody)
heavy 1: EVQLVESGGGLVQPGGSLRLSCAASGYTFTSYWLHWVRKAPGKGLEWVGMIDPSNSDTRFNPEFKDRFTISADTSKNTAYLQMNSLRAEDTAVYYCATYRSYVTPLDYWGQGTLVTVSSASTKGPSVFPLAPSSKSTSGGTAALGCLVKDYFPEPVTVSWNSGALTSGVATGPAVLQSSGLYSLSSVVTVPSSSLGTQTYICNVNHKPSNTKVDKKVEPKSCDKTHTCPPCPAPEAAGGPSVFLFPPKPKDTLMISRTPEVTCVVVDVSHEDPEVKFNWYVDGVEVHNAKTKPREEQYNSTYRVVSVLTVLHRDWLNGEEYKCKVSNKALPAPIEKTISKAKGQPREPQVYTLPPSREEMTDNQVSLTCLVKGFYPSDIAVEWESNGQPENNYKTTPPVLMSDGSFFLASKLTVDKSRWQQGNVFSCSVMHEALHNHYTQKSLSLSPGK
light 1: RIQMTQSPSSLSASVGDRVTITCKSSQSLLYTSSQKNYLAWYQDKPGKAPKLLIYWASTRESGVPSRFSGSGSGTDFTLTISSLQPEDFATYYCQQYYAYPWTFGQGTKVEIKRTVAAPSVFIFPPSDEQLKSGTASVVCYLNNFYPREAKVQWKVDNALQSGNSQESVTEQDSKDSTYSLWSTLTLSKADYEKHKVYACEVTHQGLSSPVTKSFNRGEC
heavy 2: QVQLVQSGAEVKKPGSSVKVSCKASGYTFTTYYLHWVRYAPGQGLEWMGWIYPGNVHAQYNEKFKGRVTITADKSTSTAYMELSSLRSEDTAVYYCARSWEGFPYWGRGTTVTVSSASTKGPSVFPLAPCSKSTSGGTAALGCLVKDYFPEPVTVSWNSGALTSGVHTFPAVLQSSGLYSLSSVVTVPSSSLGTQTYICNVNHKPSNTKVDKKVEPDSGDKTHTCPPCPAPEAAGGPSVFLFPPKPKDTLMISRTPEVTCVVVDVSHEDPEVKFNWYVDGVEVHNAKTKPREEQYNSTYRVVSVLTVLHQDWLNGKEYKCKVSNKALPAPIEKTISKAKGQPRRPRVYTLPPSREEMTKNQVSLVCLVKGFYPSDIAVEWESNGQPENNYKTTPPVLDSDGSFFLYSVLTVDKSRWQQGNVFSCSVMHEALHNHYTQKSLSLSPGK
light 2: DIQMTQSPSSLSASVGDRVTITCKASQNVGINVAWYQRKPGDAPKSLISSASYRYSGVPSRFSGSGSGTDFTLTISSLQPEDFATYFCQQYDTYPFTFGQGTKVEIKRTVAAPSVFIFPPSKEQLKSGTASVVCLLNNFYPREAKVQWKVDNALQSGNSQESVTEQDSKDSTYSLSSTLTLSKADYEKHKVYACEVTHQGLSSPVTKSFNRGEC
notes: also called cMet-BAH10 IgG1 heteromab (with RE HC Fc format on cMet arm only)
B2: cMet mAb (RE on both HCs) (antibody, human IgG1, kappa, L234A L235A)
heavy: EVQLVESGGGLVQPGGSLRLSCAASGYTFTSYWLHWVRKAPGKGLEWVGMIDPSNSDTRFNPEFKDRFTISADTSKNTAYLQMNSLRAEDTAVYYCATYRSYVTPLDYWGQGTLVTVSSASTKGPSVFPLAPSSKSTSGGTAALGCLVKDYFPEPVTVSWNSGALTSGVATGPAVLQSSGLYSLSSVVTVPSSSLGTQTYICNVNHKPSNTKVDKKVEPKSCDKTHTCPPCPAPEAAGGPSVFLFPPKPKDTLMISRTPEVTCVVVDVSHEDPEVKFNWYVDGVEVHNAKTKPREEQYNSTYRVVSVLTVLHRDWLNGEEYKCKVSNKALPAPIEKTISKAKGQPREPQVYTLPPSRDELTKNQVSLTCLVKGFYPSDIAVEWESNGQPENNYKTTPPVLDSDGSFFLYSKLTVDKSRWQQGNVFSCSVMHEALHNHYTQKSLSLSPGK
light: B1 light 1
notes: IgG1 / kappa; also called cMet parental mAb (with RE HC Fc format on both HCs)
B3: PD-1-TIGIT parental IgG1 heteromab (bispecific antibody)
heavy 1: QVQLVQSGAEVKKPGSSVKVSCKASGGTFSSYAISWVRYAPGQGLEWMGLIIPSFDTAGYAQKFQGRVAITVDESTSTAYMELSSLRSEDTAVYYCARAEHSSTGTFDYWGRGTLVTVSSASTKGPSVFPLAPSSKSTSGGTAALGCLVADYFPEPVTVSWNSGALTSGVHTFPAVLQSSGLYSLASVVTVPSSSLGTQTYICNVNHKPSNTKVDERVEPKSCDKTHTCPPCPAPEAAGGPSVFLFPPKPKDTLMISRTPEVTCVVVDVSHEDPEVKFNWYVDGVEVHNAKTKPREEQYNSTYRVVSVLTVLHQDWLNGKEYKCKVSNKALAAPIEKTISKAKGQPREPQVYTLPPSREEMTDNQVSLTCLVKGFYPSDIAVEWESNGQPENNYKTTPPVLMSDGSFFLASKLTVDKSRWQQGNVFSCSVMHEALHNHYTQKSLSLSPGK
light 1: DIQMTQSPSSVSASVGDRVTITCRASQGISSWLAWYQRKPGDAPKLLISAASSLQSGVPSRFSGSGSGTDFTLTISSLQPEDFATYYCQQANHLPFTFGGGTKVEIKRTVAAPSVFIFPPSDKQLKSGTARVVCLLNNFYPREAKVQWKVDNALQSGNSQESVTEQDSKDSTYSLISTLTLSKADYEKHKVYACEVTHQGLSSPVTKSFNRGEC
heavy 2: EVQLVESGGGLVQPGGSLRLSCAASGFDFSSYGVPWVRKAPGKGLEWVGYIDPIFGPTYYADEVKGRFTISADDSKNSLYLQMNSLKTEDTAVYYCARDYSYGYAYALDIWGQGTLVTVSSASTKGPSVFPLAPSSKSTSGGTAALGCLVKDYFPEPVTVSWNSGALTSGVHTFPAVLQSSGLYSLSSVVTVPSSSLGTQTYICNVNHKPSNTKVDKRVEPKSCDKTHTCPPCPAPEAAGGPSVFLFPPKPKDTLMISRTPEVTCVVVDVSHEDPEVKFNWYVDGVEVHNAKTKPREEQYNSTYRVVSVLTVLHQDWLNGKEYKCKVSNKALAAPIEKTISKAKGQPRRPRVYTLPPSREEMTKNQVSLVCLVKGFYPSDIAVEWESNGQPENNYKTTPPVLDSDGSFFLYSVLTVDKSRWQQGNVFSCSVMHEALHNHYTQKSLSLSPGK
light 2: RIVMTQTPLSLSVTPGQPASISCQASQRISPYLAWYLDKPGQPPQLLISRASKLASGVPDRFSGSGSGTDFTLKISRVEAEDVGVYYCQSYYVHTSSGYAFGGGTKVEIKRTVAAPSVFIFPPSDEQLKSGTASVVCLLNNFYPREAKVQWKVDNALQSGNSQESVTEQDSKDSTYSLSSTLTLSKADYEKHKVYACEVTHQGLSSPVTKSFNRGEC
notes: Unmodified control heteromab; also called PD-1-TIGIT IgG1 heteromab; PD-1-Tigit IgG1 heteromab
B4: PD-1-TIGIT IgG1 heteromab (DKK on PD-1 light chain Fab region only) (bispecific antibody)
heavy 1: B3 heavy 1
light 1: B3 light 1 with V110D, E143K, Q199K
heavy 2: B3 heavy 2
light 2: B3 light 2
notes: also called PD-1-Tigit IgG1 heteromab (with DKK LC Fab region on PD-1 arm only)
B5: PD-1-TIGIT IgG1 heteromab (KK on PD-1 light chain Fab region only) (bispecific antibody)
heavy 1: B3 heavy 1
light 1: B3 light 1 with E143K, Q199K
heavy 2: B3 heavy 2
light 2: B3 light 2
notes: also called PD-1-Tigit IgG1 heteromab (with KK LC Fab region on PD-1 arm only)
B6: PD-1-TIGIT IgG1 heteromab (ADK on PD-1 light chain Fab region only) (bispecific antibody)
heavy 1: B3 heavy 1
light 1: B3 light 1 with T109A, V110D, Q199K
heavy 2: B3 heavy 2
light 2: B3 light 2
notes: also called PD-1-Tigit IgG1 heteromab (with ADK LC Fab region on PD-1 arm only)
B7: PD-1-TIGIT IgG1 heteromab (DK on PD-1 light chain Fab region only) (bispecific antibody)
heavy 1: B3 heavy 1
light 1: B3 light 1 with V110D, E143K
heavy 2: B3 heavy 2
light 2: B3 light 2
notes: also called PD-1-Tigit IgG1 heteromab (with DK LC Fab region on PD-1 arm only)

Assays:
Protein A [1] = target: T2, Protein A (UniProt P38507 37-327, biotin (site not stated)); assay: ELISA, Biotin-Protein A
T2 construct: Reagent; also called Biotin-Protein A; Protein A ligand
Procedure: (§1) Binding of the heavy chain Fc region formats of Table 1b for exemplified IgG heteromabs to Protein A ligand may be assessed via ELISA. Briefly, 96-well flat bottom Elisa plates are coated with 2 ug/mL goat anti-human-kappa protein at 100 ul/well and incubated overnight at 4° C. The following day, plates are washed 3× with wash buffer 0.05% PBS-Tween 20 (PBS-T)) and blocked for 1 hr with blocking buffer (casein, 200 µL/well) at room temperature (RT). Plates are washed 3× with wash buffer, and binding proteins (as shown in Table 4) are added to individual wells at 10 μg/mL and serially diluted 1:3, at a volume of 100 uL/well in PBS-T. Plates are incubated at RT for 1 hr, and washed 3× with wash buffer. Biotin-Protein A at 0.5 ug/ml is added at 100 uL/well and plates are incubated for 1 hr at RT, washed 3×, and 100 uL/well of streptavidin labeled alkaline phosphatase (SA-AP) is added to each well. Plates are incubated 30 min at RT. Plates are then washed 3×, and 100 uL/well of p-Nitrophenyl Phosphate, Disodium Salt (PNAP)(Thermo Fisher Scientific) substrate is added. Reactions are stopped and optical density is measured using a colorimetric microplate reader set to 405 nm.

Protein A [2] = target: T2, Protein A; assay: ELISA, antibody titrated on goat anti-human-kappa, Biotin-Protein A at 0.5 ug/ml
Procedure: as §1

[3] = target: T3, CaptureSelect Kappa XL ligand; assay: CaptureSelect Kappa XL affinity column after Protein A
T3 construct: also called Biotin-KappaXL; Kappa XL column
From the text: Multispecific binding proteins of the present disclosure, in clarified medium or recovered from Protein A purification, may be subjected to a second purification step using a CaptureSelect™ Kappa XL (Thermo Fisher Cat. #494321001) pre-packed affinity column. Briefly, multispecific binding proteins of the present disclosure recovered from Protein A purification are subjected to a Kappa XL affinity column which has been equilibrated with a compatible buffer, such as phosphate buffered saline (PBS) at pH 7.4. The column is then washed to remove nonspecific binding components. The bound multispecific binding protein is eluted, for example, by pH gradient (such as 20 mM Tris buffer pH 7.0 to 10 mM sodium citrate buffer pH 3.0). Binding protein fractions are detected, such as by UV absorbance or SDS-PAGE, and then are pooled.
Percent flow through (% F T) and percent elution of exemplified heteromabs of the present disclosure following kappa XL column purification essentially as described herein is assessed. Briefly, various antibody formats (as set forth in Table 3) are subjected to Kappa XL column. Flow through material is considered to comprise of impurities, such as homodimers, or misassembled antibodies, whereas the Kappa XL ligand bound material (elution material) is considered to be the correctly assembled bispecific antibody.

human TIGIT-ECD = target: T1, human TIGIT-ECD; assay: ELISA, antibody at 1 µg/mL captured by anti-human-Fc, antigen titrated
Procedure: (§2) Binding affinity of exemplified multispecific binding proteins provided herein is assessed via ELISA. Briefly, 384-well flat bottom Elisa plates are coated with 1 ug/mL anti-human-Fc protein at 20 ul/well and incubated overnight at 4° C. The following day, plates are washed 3× with wash buffer (0.05% PBS-Tween 20) and blocked for 1 hr with blocking buffer (casein, 60 μL/well) at room temperature (RT). Plates are washed 3× with wash buffer, and binding proteins as shown in Table 10 are added at 1 μg/mL in triplicates at 20 uL/well in DPBS (Dulbecco's HyClone). Plates are incubated at RT for 1 hr, washed 3× with wash buffer, and titrated antigens are added at 20 ul/well and incubated for 60 min at RT. Plates are washed 3×, and 20 uL/well NAAP substrate is added and incubated for 20 min. Plates are washed 3×, and PNPP substrate is added at 20 uL/well, and reactions are stopped, and optical density is measured using a colorimetric microplate reader set to 405 nm.

human PD-1-ECD = target: T4, human PD-1-ECD (human, UniProt Q15116 25-170); assay: as above
T4 construct: extracellular domain
Procedure: as §2

T4 sequence (Q15116 25-170): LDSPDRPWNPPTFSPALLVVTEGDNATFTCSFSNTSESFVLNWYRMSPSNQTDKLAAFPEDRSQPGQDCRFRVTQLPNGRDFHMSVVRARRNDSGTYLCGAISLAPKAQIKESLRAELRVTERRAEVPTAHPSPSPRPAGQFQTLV

Binder | fold decrease in binding against cMet-BAH10 IgG1 heteromab (Protein A [1]) [fold] | EC50 (Protein A [2]) [nM] | fold decrease of binding affinity against parental (Protein A [1]) [fold] | % Elution [3] [%] | % Flow Through (FT) [3] [%] | EC50 (human TIGIT-ECD) [nM] | EC50 (human PD-1-ECD) [nM]
B1 | ~1.2 | 0.56 | – | – | – | – | –
B2 | – | 0.98 | ~2 | – | – | – | –
B3 | – | – | – | 99.6 | 0.44 | 0.0681 | 0.007
B4 | – | – | – | 80.7 | 19.3 | 0.0454 | 0.0108
B5 | – | – | – | 74.8 | 25.2 | 0.0182 | 0.0093
B6 | – | – | – | 78.2 | 21.8 | 0.0108 | 0.0303
B7 | – | – | – | 73.5 | 26.6 | 0.0261 | 0.0097
